From patent publication US20240409647A1, “BISPECIFIC BINDING PROTEINS AGAINST ALARMINS AND USES THEREOF” (SINOMAB BIOSCIENCE LIMITED, priority 2022, published 2024) come the findings set out here.

In one experiment the target is T1, IL-17RB (Homo sapiens, UniProt Q9NRM6).
T1 construct: purchased R&D systems
T1 sequence (Q9NRM6 18-502): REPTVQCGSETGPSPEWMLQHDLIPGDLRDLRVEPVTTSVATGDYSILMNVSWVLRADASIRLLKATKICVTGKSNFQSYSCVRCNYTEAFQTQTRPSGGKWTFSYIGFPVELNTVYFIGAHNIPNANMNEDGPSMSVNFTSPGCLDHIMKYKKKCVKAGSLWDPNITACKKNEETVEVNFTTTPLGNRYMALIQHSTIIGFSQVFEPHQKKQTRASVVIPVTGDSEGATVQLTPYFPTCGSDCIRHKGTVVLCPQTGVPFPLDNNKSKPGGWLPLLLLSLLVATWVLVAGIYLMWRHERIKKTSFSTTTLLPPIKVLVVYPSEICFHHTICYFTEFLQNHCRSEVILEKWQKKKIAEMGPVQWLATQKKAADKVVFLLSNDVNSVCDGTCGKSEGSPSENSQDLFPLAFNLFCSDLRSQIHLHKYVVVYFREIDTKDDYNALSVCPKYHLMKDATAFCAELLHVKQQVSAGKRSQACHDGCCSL
The experiment can be described thus: ELISA, antigen binding specificity of bsBp (IL-17RB). To be noted: 33.5 nM; antigen coated at 2 μg/mL. On the set-up: key: −: no binding; +: weak; ++: moderate; +++: strong binding; N/A refers to no binding affinity. The method, then:
(§1) Binding specificities of bsBp were evaluated by standard ELISA assays. Briefly, ELISA strips were coated with the respective target antigens, including IL17RB, IL-33, or TSLP (R&D systems) at a final concentration of 2 μg/mL. Bispecific antibodies were added at 33.5 nM to ELISA strips coated with the desired antigen. After incubation under room temperature for 2 hours, ELISA strips were washed five times with PBS. […] No result is provided for SM17-human TSLPR as the yield was too low to be detected.

A further experiment has as its target T2, TSLP (Homo sapiens, UniProt Q969D9).
T2 construct: purchased R&D systems
The experiment can be described thus: ELISA, antigen binding specificity of bsBp (TSLP). On the set-up: key: −: no binding; +: weak; ++: moderate; +++: strong binding; N/A refers to no binding affinity. To be noted: 33.5 nM; antigen coated at 2 μg/mL. The method, then: as §1
(In an ELISA, binding on a coated surface is turned into a signal by an enzyme label.)

A further experiment concerns the target T3, hIL17RC (Homo sapiens, UniProt Q8NAC3).
T3 construct: purchased R&D systems
T3 sequence (Q8NAC3 21-791): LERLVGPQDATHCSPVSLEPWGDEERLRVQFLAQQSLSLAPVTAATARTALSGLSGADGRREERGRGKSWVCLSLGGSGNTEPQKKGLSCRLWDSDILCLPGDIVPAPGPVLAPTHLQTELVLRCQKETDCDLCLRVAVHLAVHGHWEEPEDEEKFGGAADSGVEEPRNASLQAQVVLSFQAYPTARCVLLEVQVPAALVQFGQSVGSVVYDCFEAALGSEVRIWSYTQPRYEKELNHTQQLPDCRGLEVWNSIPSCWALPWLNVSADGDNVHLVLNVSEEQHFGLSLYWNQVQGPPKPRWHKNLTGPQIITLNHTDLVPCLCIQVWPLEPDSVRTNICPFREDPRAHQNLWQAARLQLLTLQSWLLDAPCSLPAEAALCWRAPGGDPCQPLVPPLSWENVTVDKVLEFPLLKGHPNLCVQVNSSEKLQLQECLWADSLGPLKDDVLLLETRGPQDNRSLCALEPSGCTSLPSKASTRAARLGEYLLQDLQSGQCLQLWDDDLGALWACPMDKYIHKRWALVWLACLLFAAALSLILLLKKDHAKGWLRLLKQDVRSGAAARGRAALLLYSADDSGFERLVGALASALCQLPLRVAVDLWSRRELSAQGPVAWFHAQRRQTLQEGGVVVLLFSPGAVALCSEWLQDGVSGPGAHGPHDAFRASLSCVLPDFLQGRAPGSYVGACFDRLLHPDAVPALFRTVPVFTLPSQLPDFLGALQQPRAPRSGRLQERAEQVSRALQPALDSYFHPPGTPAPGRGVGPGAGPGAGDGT
The experiment can be described thus: ELISA, SM17 specificity against IL-17 receptor subunits (IL17RC). The experiment is classed as binding. To be noted: 0.4 to 0.00064 μg/mL. The method, then: A standard ELISA method was used to determine the specificity of SM17 against other human IL17 receptor subunits. Similarly, serially diluted SM17 at different concentrations (final concentrations at 0.4, 0.08, 0.016, 0.0032 and 0.00064 μg/m, respectively) was added to the wells of ELISA plates coated either with human IL-17 receptor subunits A, C, D and E (IL17RA, IL17RC, IL17RD, and IL17RE) (R&D systems).

The next experiment concerns the target T4, rhesus IL17RB (Macaca mulatta, UniProt H9FWT9).
T4 construct: purchased R&D systems
T4 sequence (H9FWT9 18-502): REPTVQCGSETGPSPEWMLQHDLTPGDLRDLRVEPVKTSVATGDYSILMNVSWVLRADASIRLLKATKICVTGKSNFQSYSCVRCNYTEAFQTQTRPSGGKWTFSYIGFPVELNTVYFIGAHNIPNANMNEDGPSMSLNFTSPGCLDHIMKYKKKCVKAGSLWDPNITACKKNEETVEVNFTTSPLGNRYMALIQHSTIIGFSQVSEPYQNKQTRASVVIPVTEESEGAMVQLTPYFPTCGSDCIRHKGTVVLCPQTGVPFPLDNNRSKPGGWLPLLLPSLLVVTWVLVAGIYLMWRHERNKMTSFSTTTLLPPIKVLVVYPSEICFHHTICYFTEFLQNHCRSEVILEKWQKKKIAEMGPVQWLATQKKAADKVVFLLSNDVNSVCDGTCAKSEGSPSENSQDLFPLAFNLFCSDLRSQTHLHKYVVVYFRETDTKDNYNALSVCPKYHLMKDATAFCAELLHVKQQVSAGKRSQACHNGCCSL
The experiment can be described thus: ELISA, SM17 binding to coated IL-17RB protein (rhesus). As to conditions: two wells. More on the design: species or system rhesus monkey. The method, then: A standard enzyme-linked immunosorbent assay (ELISA) method was used to determine the species specificity of SM17 against IL-17RB proteins. Briefly, IL-17RB proteins from human, mouse, cynomolgus or rhesus monkey (R&D systems, Minneapolis, MN) were diluted to 2.5 μg/ml in PBS and 50 μl of IL-17RB proteins were added to each well of ELISA strip. The strips were sealed with parafilm and incubated at 4° C. overnight for coating.
On the next day, strips were washed thrice with washing buffer (0.05% Tween 20 in PBS) and blocked with 100 μl per well with blocking buffer (3% BSA in PBS) for 2 hours RT before serially diluted SM17 (at a final concentration of 10, 2, 0.4, 0.08, 0.016, 0.0032, and 0.00064 μg/ml, respectively) was added.

Several values for one entry are separate records, joined by “and”; a condition that tells them apart may be missing. Equal entries are not always repeated.

Take “SM17: humanized anti-IL17RB monoclonal antibody, human IgG4 isotype; HC SEQ ID NO: 32, LC SEQ ID NO: 33”: the “Intensity of specific antigen binding, IL-17RB coated on ELISA strips” value in the experiment with IL-17RB is “+++”. The “Intensity of specific antigen binding, TSLP coated on ELISA strips” value with TSLP is on record as “+”. The “binding of SM17 to IL17RC (in words)” value with hIL17RC was “No obvious bindings”. Also, the “OD 450 nm Absorption, rhesus IL17RB” value with rhesus IL17RB (SM17 0.016 μg/mL) was 0.27 and 0.17; with rhesus IL17RB (SM17 0.08 μg/mL), 0.51 and 0.58; in the experiment with rhesus IL17RB (SM17 0.4 μg/mL) it was 1.12 and 1.17; with rhesus IL17RB (SM17 2 μg/mL), 1.40 and 1.45; in the experiment with rhesus IL17RB (SM17 10 μg/mL), 1.57 and 1.59.
